Each block holds one substance with its values, some of them ahead of it.
Molecular target: human B cell antigen CD19 on human B-ALL cells (human) (UniProt P15391)
Test: cell-based or functional assay

percent of CarP-RFP macrophages (from GMPs expanded in modified SCF/2i) that engulfed GFP-labeled human B-ALL cells within 1 hour of co-culture; control CAR without signaling domain: 0.87%
percent of macrophages (from mouse SCF/2i GMPs) that phagocytized GFP-labeled human B-ALL cells within 1 hour of co-culture; control CAR without signaling domain: 0.21%
Substance: CarP-RFP (control CarP: extracellular αCD19 scFv, CD8 transmembrane domain, RFP, no cytoplasmic signaling domain) (from UniProt P01732 138-206)

percent of macrophages (from mouse SCF/2i GMPs) that engulfed GFP-positive human B-ALL cells within 1 hour of co-culture: 5.23%
Substance: CarP^Fc19-RFP (αCD19 scFv, human CD8 hinge/transmembrane, mouse Fcer1g aa19-86, mouse CD19 aa491-535, P2A-RFP) (from UniProt P01732 138-206; P20491 19-86; P25918 491-535)

percent of macrophages (from GMPs expanded in modified SCF/2i) that engulfed GFP-labeled human B-ALL leukemia cells within 1 hour of co-culture, by flow cytometry: 28.6%
Substance: human CarPzFc19-RFP (αCD19 scFv, human CD8 hinge/transmembrane, human CD3ζ aa52-164, human Fcer1g aa45-86, human CD19 aa498-544) (from UniProt P01732 138-206; P20963 52-164; P30273 45-86; P15391 498-544)

percent of macrophages (from mouse SCF/2i GMPs) that engulfed human B-ALL leukemia cells within 1 hour of co-culture, by flow cytometry: 41.6%
Substance: αCD19 CarP^zFc19-RFP (αCD19 scFv, human CD8 hinge/transmembrane, mouse CD3ζ aa52-164, mouse Fcer1g aa45-86, mouse CD19, P2A-RFP) (from UniProt P01732 138-206; P24161 52-164; P20491 45-86; P25918 491-535)

Source: patent US20240240147A1
